B1: EHEE_rd2_0601 (parent)
chain: TYTYKLTDEEASRRAEDEWRNRGYDVRVRNNNGTWEVEVR

Variants of: B1
Test: folding stability dG (cDNA display proteolysis); higher = more stable
Conditions: PBS, room temperature

Folding stability dG [kcal/mol] of substitutions, site by site:
A11: D 1.12, E 1.5, F 0.664, G 0.768, H 0.875, I 0.447, K 0.673, L 0.971, M 1.11, N 0.709, P -0.502, Q 1.22, R 0.546, S 1.58, T 1.19, V 0.486, W 0.697, Y 0.624
S12: A 3.22, C 2.33, D -0.63, E -0.128, F 1.08, G 1.14, H -0.243, I 0.918, K 0.553, L 1.39, M 1.95, N -0.531, P -0.764, Q 0.072, R 0.481, T 1.51, V 2.17, W 0.977, Y 0.95
R13: A 0.771, C 0.559, D 0.014, E 0.263, F 0.619, G 0.328, H 0.979, I 0.934, K 1.45, L 1.08, M 0.987, N 0.767, P -0.953, Q 0.968, S 0.553, T 0.582, V 0.764, W 0.841, Y 0.805
R14: A 1.36, D 0.704, E 1, F 1.13, G 0.487, H 1.22, I 1.35, K 1.53, L 1.33, M 1.2, N 1.04, P -0.495, Q 1.35, S 0.898, T 0.957, V 1.29, W 0.994, Y 0.942
A15: D 0.605, E 0.824, F 1.85, G -0.371, H 1.43, I 2.2, K 1.37, L 2.46, M 2.13, N 0.072, P -0.743, Q 0.788, R 0.442, S 0.658, T 1.43, V 2.21, W 1.36, Y 1.4
E16: A 2.56, D -0.24, F 1.73, G 1.4, H 1.08, I 1.82, K 0.777, L 1.54, M 1.68, N 0.335, P -0.034, Q 1.46, R 1.19, S 1.47, T 1.29, V 2, W 1.3, Y 1.86
D17: A 2.17, E 1.99, F 1.86, G 1.24, H 1.68, I 2.17, K 2.02, L 2.06, M 2.11, N 1.78, Q 2.08, R 2.1, S 1.88, T 1.99, V 2.08, W 1.92, Y 1.77
E18: A 1.45, C 2.41, D 1.21, F 2.71, G 0.757, H 1.83, I 1.74, K 1.43, L 2.04, M 2.03, N 1.03, Q 1.36, R 1.31, S 1.25, T 1.35, V 1.56, W 2.44, Y 3.02
W19: A 0.133, E -0.502, F 1.04, H -0.397, I -0.516, L 0.884, M 0.446, N -0.826, Y 0.78
R20: A 0.541, E -0.108, F 0.22, G 0.028, H 0.444, I 0.853, K 1.32, L 0.904, M 0.619, N 0.373, Q 0.446, S 0.589, T 0.945

From the MegaScale stability set (Tsuboyama et al. 2023)
